Experimental data: the supplement of paper PMC9170038

Test system: MS2 coat protein
Assay: apparent KD of MS2 coat protein; designed switch direction (-1 OFF switch, 1 ON switch): -1; higher = weaker reporter binding
How it was run: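 Stalled E. coli RNA polymerase transcribed designed RNA switches on Illumina chips, which were then titrated with SNAP-549-labelled MS2 coat protein, doubling from 0.7 or 1.5 nM to 3 µM. Steps lasted from 0.8–1.5 h at the lowest concentration to 10–20 min at the highest. The apparent KD is each design's median over clusters of curve-fitted normalised fluorescence.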

[1] = Eterna round: R95, input ligand: FMN 200 uM
[2] = Eterna round: R95, input ligand: microRNA oligo, concentration not stated
[3] = Eterna round: R95, input ligand: none
[4] = input ligand: microRNA oligo, concentration not stated

| Sequence | apparent KD of MS2 coat protein (input ligand: FMN 200 uM) [nM] | apparent KD of MS2 coat protein (input ligand: none) [nM] | also measured |
| --- | --- | --- | --- |
| CCGGUAAAGGAGGAUAUAGGAGUCGAUAGACACCUAGAAGGCCUGACAUGAGGAUCACCCAUGUGUCCUACCGG [Fiskers Ex 6 - 93] (puzzle: Exclusion 6) | – | – | apparent KD of MS2 coat protein [1]: 23.7 nM; apparent KD of MS2 coat protein [2]: 14.1 nM; apparent KD of MS2 coat protein [3]: 13.5 nM |
| CCGGUUGGCGCAGGAUAUACAUGAGGAUCACCCAUGUUCAUGAGGAUCACUCAUGAGUUUUUGUUGUAGAAGGGUGGCCCGGCC (Eterna round: R96, puzzle: Exclusion NG 2) | 1170 | 933 | apparent KD of MS2 coat protein [4]: 605 nM |
| CCGUGAGGUAAUAAUCAGUACAUGAGGAUCACCCAUGUCAAGAAGUUGCUCGUCGGUCGGAAAUACGGACGACCCAU [Eternabot (Original) Solution 50] (Eterna round: R97, puzzle: Sensor, turn-off variant 1) | 19.1 | 17.9 | – |
| CCGUGGCAAGGAUAUACAGAGGAGAGGAAGGCAAGAGGUGGACAUGAGGAUCACCCAUGUAGAAGGUGCAGAGC [JR_Exclu2_Sub026] (puzzle: Exclusion 2) | – | – | apparent KD of MS2 coat protein [1]: 130 nM; apparent KD of MS2 coat protein [2]: 124 nM; apparent KD of MS2 coat protein [3]: 160 nM |
| CCUAAACAUGAGGAUCACCCAUGUGAGGAUAUGAUGCAGCAGUGGUCUACGCUGUGCAUCAGAAGGUACAUGGU (puzzle: Exclusion 1) | – | – | apparent KD of MS2 coat protein [2]: 73.4 nM |
| CCUAGUUGGUAAGGAUAUCCUACACUAUUCUGACCCGUGCAAGCUACAUGAGGAUCACCCAUGUGGGAGAAGGUGCGUCAACGC [Design 11] (Eterna round: R96, puzzle: Exclusion NG 2) | 29.1 | 32.9 | apparent KD of MS2 coat protein [4]: 19.7 nM |
| CCUAGUUGGUAAGGAUAUCCUACACUGUUCUGACCCGGGCAUGCUACAUGAGGAUCACCCAUGUGGGAGAAGGUGCGUCAACGC [Design 14] (Eterna round: R96, puzzle: Exclusion NG 2) | 36.8 | 30.6 | apparent KD of MS2 coat protein [4]: 19.3 nM |
| CCUAGUUGGUAAGGAUAUCCUACAUUGUUCUGACCCGGGCAUGCUACAUGAGGAUCACCCAUGUGGGAGAAGGUGCGUCAUCGC [Design 16] (Eterna round: R96, puzzle: Exclusion NG 2) | 80.4 | 83.4 | apparent KD of MS2 coat protein [4]: 55.9 nM |
| CCUCAGUGAGGAUAUCAGUAAUGUAAGACGUACAGUCGCACUGAGAAGGUACAUGAGGAUCACCCAUGUUAGUU [Eternabot (L1) Solution 50] (Eterna round: R97, puzzle: Exclusion 4) | 31.3 | 23 | – |
| CCUCCACAUGAGGAUCACCCAUGUCAGGAUAUCGUGUGUGUUUUUUCGGUCUUUCGUGCGAGAAGGGACGUCUG (puzzle: Exclusion 1) | – | – | apparent KD of MS2 coat protein [2]: 45.6 nM |
| CCUCCACAUGAGGAUCACCCAUGUCAGGAUAUCGUGUGUUUUUUUUCGGUCUUUCGUGCGAGAAGGGACGUCUU (puzzle: Exclusion 1) | – | – | apparent KD of MS2 coat protein [2]: 30.8 nM |
| CCUCCGGUACGAGGAUAUCUGACGGCCGCCGGAGGAGAAGGCGUACAUGAGGAUCACCCAUGUCCAGCGUGCACCACGCUGGUU [Usbius] (Eterna round: R96, puzzle: Exclusion NG 1) | 119 | 44.9 | apparent KD of MS2 coat protein [4]: 38.1 nM |
| CCUCUACAUGAGGAUCACCCAUGUCAGGAUAUGCGAAUUUCAUCAAAAGAUGAAAUUUGCAGAAGGGACUAAGC [Omei Ex1 A34] (Eterna round: R97, puzzle: Exclusion 1) | 282 | 246 | – |
| CCUCUACAUGAGGAUCACCCAUGUGAGGAUAUCAAAGUCAGGGCGGCGCCCUGACUCAUGAGAAGGUGCAUGAA [EX1 A.16] (Eterna round: R97, puzzle: Exclusion 1) | 31.8 | 22.4 | – |
| CCUCUACAUGAGGAUCACCCAUGUGAGGAUAUCUCGGAAAAGCCACUUAAGGUACUCCAGAGAAGGCACGUGUA [Rileed] (puzzle: Exclusion 1) | – | – | apparent KD of MS2 coat protein [2]: 15.2 nM |
| CCUCUACAUGAGGAUCACCCAUGUGAGGAUAUCUCGGAGCAGCCAAUUAAAGCGCUCCAGAGAAGGCACGUGUA [Inesraar] (puzzle: Exclusion 1) | – | – | apparent KD of MS2 coat protein [2]: 19.4 nM |
| CCUCUACAUGAGGAUCACCCAUGUGAGGAUAUCUCGGAGCAGCCACUUAAGGCGCUCCAGAGAAGGCACGUGUA [Resogeorza] (puzzle: Exclusion 1) | – | – | apparent KD of MS2 coat protein [2]: 17.6 nM |
| CCUCUGUAAGGAUAUACGGAGACGGCUGGAAUCAGUGGAAAGUAGAAGGUACAUGAGGAUCACCCAUGUGAGAC [Anceleso] (puzzle: Exclusion 4) | – | – | apparent KD of MS2 coat protein [2]: 20.2 nM |

| Sequence | apparent KD of MS2 coat protein (input ligand: FMN 200 uM) [nM] | apparent KD of MS2 coat protein (input ligand: none) [nM] | also measured |
| --- | --- | --- | --- |
| CCUGAUCCACAGGAUAUGCUCAUCUAAUGAUGAGCAGAAGGGUGGACAUGAGGAUCACCCAUGUUUAUCAAUGG [Omei Ex6 D4] (Eterna round: R97, puzzle: Exclusion 6) | 804 | 125 | – |
| CCUUAGUCACAGGAUAUGCUCAUCUAAUGAUGAGCAGAAGGGUGGACAUGAGGAUCACCCAUGUUUAUCAAGGG [Omei Ex6 E2] (Eterna round: R97, puzzle: Exclusion 6) | 249 | 348 | – |
| CCUUAGUUAGGAUAUAUUAAGGCCUCUGUGAGCGCAGGGCAAUAGAAGGAACAUGAGGAUCACCCAUGUAUGGA [Eternabot (L2) Solution 98] (Eterna round: R97, puzzle: Exclusion 4) | 38.6 | 29.7 | – |
| CGAGCCUAUGUAAGGAUAUCACAAUAAAACCAGUGUGAGAAGGUACAUGAGGAUCACCCAUGUUCACGACUGGC [BmEX4 A.26] (Eterna round: R97, puzzle: Brourd's mod of Exclusion 4) | 16.9 | 16.8 | – |
| CGAGCUAGUGUGAGGAUAUACCUAUGGAUACAUAGGUAGAAGGCACAUGAGGAUCACCCAUGUCCUAUAGCUCG [jl-bmx4-4.56] (Eterna round: R97, puzzle: Brourd's mod of Exclusion 4) | 499 | 177 | – |
| CGAUAAAGGUGAGGAUAUGAGAAUAGAAAGAAAUCAGAAGGCACACAUGAGGAUCACCCAUGUGAGUUCUUGAGAUUACAUGGU [Prohibition 44 - Jieux - Exclusion NG 1] (Eterna round: R96, puzzle: Exclusion NG 1) | – | – | apparent KD of MS2 coat protein [4]: 11 nM |
| CGAUGAGCGGUGAGGAUAUCGUGUUCGAAAGAACGUGAGAAGGCACAUGAGGAUCACCCAUGUGAUCCUCAUCG [Omei Ex4B A34] (Eterna round: R97, puzzle: Brourd's mod of Exclusion 4) | 21.4 | 15.2 | – |
| CGAUGCUCGUGUCCACAUGAGGAUCACCCAUGUCGAGUUAGCGAGGAUAUCGGUGACACAUAGUACGAGAAGGCGCGAACCUGA [Ex NG3 #26] (Eterna round: R96, puzzle: Exclusion NG 3) | 54.3 | 32.2 | apparent KD of MS2 coat protein [4]: 21 nM |
| CGAUGUGGAGUGAGGAUAUCGUGUUCGAAAGAACGUGAGAAGGCACAUGAGGAUCACCCAUGUGAUUCACGUCG [Omei Ex4B A6] (Eterna round: R97, puzzle: Brourd's mod of Exclusion 4) | 28 | 15.6 | – |
| CGCAAGUUAGGAUAUGACGCGAAUUUCCGGCUUUGGCCGGAUCAGAAGGAACUUGAGGAUCACCCAAGUGGCCG [Adia] (Eterna round: R97, puzzle: Exclusion 4) | 20.1 | 15.9 | – |
| CGCAAUGGAGGAUAUACAUGAGGAUCACCCAUGUGGUCCUUGAGAUUCCAAAAGUCAAGUAGAAGGUCAGCGGC [Eternabot (L1) Solution 45] (Eterna round: R97, puzzle: Exclusion 3) | 1210 | 1600 | – |
| CGCAGACGAGGAUAUAGAUGGAAUGACAUGAGGAUCACCCAUGUGAUCGAUCUAUUGGGUUUAGAAGGUGUCUGCG [JR_Ex5_Sub046] (Eterna round: R97, puzzle: Exclusion 5) | 14.4 | 15.2 | – |
| CGCCUACAUGAGGAUCACCCAUGUGAGGAUAUCCUGCGAGGAUCAAAAGAUCCUCGUGGGAGAAGGCGCCUGGA [Omei Ex1 B6] (Eterna round: R97, puzzle: Exclusion 1) | 37.6 | 13.1 | – |
| CGCCUACAUGAGGAUCACCCAUGUGAGGAUAUCCUGCGAGGAUCAAAAGAUCCUCGUGGGAGAAGGCGCUUGGA [Omei Ex1 B7] (Eterna round: R97, puzzle: Exclusion 1) | 18.7 | 19.4 | – |
| CGCCUGGGAGGAUAUCCAAUAUAUGACAUGAGGAUCACCCAUGUUUCCACUCGUACCUCCGGAGAAGGCCCGGCGU [Ex5 #31] (Eterna round: R97, puzzle: Exclusion 5) | 21.7 | 26.7 | – |
| CGCGCCUUUGUCAGGAUAUUCGGGCGAGCCCGGCCGGAGAAGGGACUUGAGGAUCACCCAAGUGACGCGAAAAC [Beenusre] (Eterna round: R97, puzzle: Brourd's mod of Exclusion 4) | 20.8 | 20.6 | – |
| CGCGGCGCGUAGGAUAUUGGGUCGGACGGCAAAUAAGAAGGACGCACAUGAGGAUCACCCAUGUCGAAAGCACA [Eternabot (Original) Solution 17] (Eterna round: R97, puzzle: Exclusion 6) | 27.8 | 33.7 | – |
| CGCGUAUGAGGAUAUGCAUAAAAGGGUGCACUGAGUCUGAGACAUGAGGAUCACCCAUGUAGAAGGCGUGCGCU [Beerteon] (puzzle: Exclusion 2) | – | – | apparent KD of MS2 coat protein [2]: 13.6 nM |
